Test results: patent US6713276B2, “Modulation of Aβ levels by β-secretase BACE2” (Scios, Inc., priority 2000, dated 2004)

How the values were obtained:
APP751wt = assay: cell-free β-secretase assay, β-NTF ELISA, APP751wt substrate; format: biochemical, human; conditions: membrane extracts of transfected HEK293 cells, incubation up to 8 hours
Procedure: The β-secretase assay consists of two different parts, an incubation or reaction phase to generate β-NTF and an ELISA part to capture and measure the β-NTF generated by β-secretase. The β-secretase ELISA was performed as follows. Each well of a 96 well plate containing a flat bottom (high protein binding, Corning, N.Y.) was coated with 100 μl of the monoclonal capture antibody 8E5 (at ˜8-10 μg/ml) (Johnson-Wood et al. Proc. Natl. Acad. Sci. USA 94: 1550-1555 [1997]). The plate was then covered with parafilm and incubated overnight at 4° C. or alternatively for 2 hours at 37° C. […]
One hundred μl of a 1:5000 dilution of a goat anti rabbit IgG-HRP in Antibody-Conjugate Buffer was then added to each well, and the plate incubated at room temperature for one hour. […] After sufficient blue color had developed, the reactions were stopped by adding 100 μl of 5N H2SO4 to each well, and the amount of βNTF was determined by reading the plate at 450 nm in a Softmax spectrophotometer.
Equal amounts of membrane extracts from either mock, BACE or BACE2 transfected HEK293 cells were incubated with partially purified full length APP751 sw or APP751wt for the indicated times. The formation of β-NTF was then determined using the respective β-NTF specific ELISA as described in General Methodology.

[1] = test system: APP751sw processing in SK-N-MC cells; assay: co-transfection with APP751sw in SK-N-MC neuroblastoma cells, ELISA of conditioned medium; format: cell-based, human; conditions: co-transfected with APP751sw
Procedure: Expression vectors containing BACE and BACE2 cDNAs were transfected into HEK293T cells in the presence of APP751sw or CT100 (Shoji et al., Science 258: 126-129 [1992]; Lichtenthaler et al., Proc. Natl. Acad. Sci. USA 96: 3053-3058 [1999]). Transfections were performed in 24 well plates using Lipofectamine Plus (Gibco/BRL, Bethesda, Md.) and DNA concentrations were kept constant by including non-specific DNA. Expression plasmids were tested for BACE and BACE2 expression by Western blotting. Cell culture supernatants were collected 48 hours and 72 hours post-transfection, and assayed for α-NTF, β-NTF and Aβ formation. β-NTF measurement was performed as described below. α-NTF was captured like β-NTF but was detected with biotinylated 2H3 (Johnson-Wood et al., Proc. Nati. Acad. Sci. USA 94: 1550-1555 [1997]). Aβ levels were determined by an ELISA using monoclonal antibodies 266 for capture and biotinylated 3D6 for detection (see Johnson-Wood et al., [1997] ibid for antibody epitope description). Aβ42, in contrast, was captured using 21F 12 and detected with biotinylated 3D6. […]
We further assessed the modulatory effect of BACE2 on Aβ formation using a human neuroblastoma cell line, SK-N-MC.

B1: BACE2: human aspartyl protease, close homolog of BACE (SEQ ID NO: 2), expressed from pcDNA3.1(−)/BACE2 in transfected cells (protein)
chain: MGALARALLLPLLAQWLLRAAPELAPAPFTLPLRVAAATNRVVAPTPGPGTPAERHADGLALALEPALASPAGAANFLAMVDNLQGDSGRGYYLEMLIGTPPQKLQILVDTGSSNFAVAGTPHSYIDTYFDTERSSTYRSKGFDVTVKYTQGSWTGFVGEDLVTIPKGFNTSFLVNIATIFESENFFLPGIKWNGILGLAYATLAKPSSSLETFFDSLVTQANIPNVFSMQMCGAGLPVAGSGTNGGSLVLGGIEPSLYKGDIWYTPIKEEWYYQIEILKLEIGGQSLNLDCREYNADKAIVDSGTTLLRLPQKVFDAVVEAVARASLIPEFSDGFWTGSQLACWTNSETPWSYFPKISIYLRDENSSRSFRITILPQLYIQPMMGAGLNYECYRFGISPSTNALVIGATVMEGFYVIFDRAQKRVGFAASPCAEIAGAAVSEISGPFSTEDVASNCVPAQSLSEPILWIVSYALMSVCGAILLVLIVLLLLPFRCQRRPRDPEVVNDESSLVRHRWK
Q: How did the “β-NTF formation (β-secretase cleavage in vitro)” value (APP751wt) turn out when B1 was run?
A: cleaved APP751wt to a similar extent as BACE

Q: What about the “Aβ in conditioned medium” value [1] of the same molecule?
A: significant reduction of Aβ

Q: And the “β-NTF in conditioned medium” value [1]?
A: showed β-secretase activity in vivo
